According to patent US20030138894:

Tested on: ACE-2 inhibitor peptide (the most active ACE-2 inhibitor peptide, Example 9)

Row | Substance | conversion of angiotensin I to A1-9 by ACE-2 | hydrolysis of the substrate, hip his-leu (250 mM) by ACE (1.5 nM)
1 | recombinant human-ACE-2 | This peptide also inhibited conversion of angiotensin I to A1-9 by ACE-2. | 
2 | Angiotensin converting enzyme (ACE) |  | the inhibitor did not affect the hydrolysis of the substrate, hip his-leu (250 mM) by ACE (1.5 nM), even at 25 mM
